± gives the standard deviation of the averaged measurements.
Test system: ATP
Experiment: switch fluorescence ratio, 500 uM ATP over buffer (Cy3 cluster intensity, sum of 5 cycles each) (fold (ratio)); higher = stronger signal-on switching upon ATP binding; sequences stand for … in TCGTCGGCAGCGTCAGATGTGTATAAGAGACAGTTTTTTTTTTTTTTTTTTTTTTTTT…TC
Conditions: aptamer strand: ATP DNA aptamer (quencher-CACCTGGGGGAGTATTGCGGAGGAAGG + anchor), 100 nM annealed; ATP concentration: 500 uM
In short: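 Five buffer/ATP imaging cycles were run on Cy3-labelled switching-strand clusters on a modified Illumina MiSeq flow-cell, with NaOH stripping and re-annealing between cycles. In each cycle, clusters annealed to 100 nM quencher-labelled ATP aptamer were imaged in selection buffer, then after 15 min with 500 uM ATP at 22 °C. Per cluster, the fluorescence ratio is summed target-cycle over summed buffer-cycle Cy3 intensity, averaged per switch-domain sequence. Only clusters within 100-1000 RFU were kept.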
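Note: ATP exposure 15 min at 22 °C before imaging.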

| Sequence | switch fluorescence ratio |
| --- | --- |
| TTATACGATG | 1.01 ± 0.025 |
| CGTAACTGTG | 1.07 ± 0.043 |
| AAAATGTGGT | 1 ± 0.015 |
| ACTGCTACGA | 1.36 ± 0.018 |
| CCGGGTTTGG | 0.984 ± 0.017 |
| TACGAGACGG | 1.095 ± 0.0059 |
| TATGAGGATT | 0.9749 ± 0.0023 |
| TTTGGAGGTA | 1.01 ± 0.059 |
| TTTAGCAACA | 1.04 ± 0.047 |
| TGGGAGATGT | 0.993 ± 0.015 |
| TATCACTTCC | 1.96 ± 0.023 |
| ATTTGTGTGT | 0.967 ± 0.036 |
| CGGAAGCTAA | 1.46 ± 0.16 |
| TTTATGTAAA | 0.9849 ± 0.0081 |
| TTTTTAGGC | 1.01 ± 0.078 |
| CGGCAGCGGG | 1.03 ± 0.013 |
| TTTTATGGGA | 0.9849 ± 0.0032 |
| AGTCGAGGGG | 1.01 ± 0.02 |
| AGGAGACTTA | 0.9877 ± 0.0047 |
| TTTCTTGCCA | 1.02 ± 0.048 |
| GGAGCGGGGT | 1.03 ± 0.019 |
| TCTTTGAGGT | 0.989 ± 0.022 |
| AAACGATATT | 1.015 ± 0.0026 |

| Sequence | switch fluorescence ratio |
| --- | --- |
| AGTCCTCGGA | 0.96685 ± 0.00022 |
| TGTTGGGGTA | 1.03 ± 0.06 |
| AGGGGTATT | 1 ± 0.014 |
| CGATGAGGGG | 0.967 ± 0.03 |
| GTCAGAGGGT | 0.994 ± 0.013 |
| AGAGTGTTTT | 1 ± 0.028 |
| AATGGGGTGT | 0.987 ± 0.021 |
| TTTTGCATAT | 1.26 ± 0.42 |
| TACGATGCGG | 1.07 ± 0.038 |
| GTAGTTTTGG | 1.01 ± 0.026 |
| GGTTGAGGAG | 1.04 ± 0.074 |
| TTAATTGGCC | 0.992 ± 0.055 |
| CCGAAAGCCG | 1.11 ± 0.024 |
| TACGAGTTTT | 0.996 ± 0.01 |
| TCCTTTGTGG | 1.02 ± 0.021 |
| GGGTAGCCGG | 1 ± 0.0042 |
| TGGGGCTTCA | 1.01 ± 0.028 |
| ATGTTGGAAT | 1.04 ± 0.028 |
| GCTCAGGCTG | 1.02 ± 0.024 |
| GGGACTATTT | 1.01 ± 0.013 |
| CACATTTGGA | 0.985 ± 0.051 |
| TGCTGGGGGT | 1.03 ± 0.068 |
| TTGCTTCAAT | 0.983 ± 0.045 |

| Sequence | switch fluorescence ratio |
| --- | --- |
| CAGTGAGGGT | 0.981 ± 0.019 |
| GGGAAGTGAG | 1.013 ± 0.006 |
| TCAGAGGTAT | 1.02 ± 0.014 |
| GCTATTTGCG | 1 ± 0.022 |
| TTAATAAAAT | 0.966 ± 0.018 |
| GAATAAGGTA | 0.993 ± 0.011 |
| CTAGGGCACA | 1.07 ± 0.1 |
| GCCCTCTCGA | 1.018 ± 0.0079 |
| TTATTACTTA | 0.984 ± 0.017 |
| AGGATGGAGT | 0.987 ± 0.031 |
| CCGGGGGGTT | 1.09 ± 0.14 |
| TCTCTGGAGA | 1.04 ± 0.011 |
| CGTTGATGTC | 1.01 ± 0.13 |
| TAATGCCTGC | 1 ± 0.093 |
| CTGGGGCGGA | 0.983 ± 0.052 |
| GGCTTGCGGT | 0.9974 ± 0.004 |
| AAGGATTTTT | 0.998 ± 0.03 |
| GAGTTGTGAT | 1 ± 0.019 |
| GCTCGTAACT | 1 ± 0.0065 |
| GGGGAGGACA | 1.04 ± 0.082 |
| TTATACAAGT | 0.9574 ± 0.0065 |
| GGGGGAGTGG | 0.982 ± 0.054 |
| TGTGTTACGG | 0.984 ± 0.023 |

| Sequence | switch fluorescence ratio |
| --- | --- |
| AGGATGGGGT | 0.966 ± 0.017 |
| TTAGTAAGTT | 1.11 ± 0.12 |
| TGCGGGTAGG | 1.03 ± 0.012 |
| ACGGTCGTTA | 0.975 ± 0.027 |
| GGGGCCGTTA | 1.012 ± 0.0042 |
| AGGTTTAATT | 1.01 ± 0.015 |
| CCGAAAAGAT | 1.44 ± 0.59 |
| TTAGCATGTT | 1 ± 0.022 |
| CATGTAGTCT | 1.04 ± 0.013 |
| TTATATTGGT | 0.974 ± 0.028 |
| ATGGGTATCT | 0.994 ± 0.033 |
| CCCGTCAGCG | 1.02 ± 0.041 |
| GCGGGGGAAT | 1.05 ± 0.071 |
| GCCCAAGAGT | 1.04 ± 0.02 |
| TTCCGAAGGT | 1.03 ± 0.03 |
| TAATATTGGG | 0.989 ± 0.029 |
| ACCCTCGCAG | 1.748 ± 0.0058 |
| AGGACTTTCT | 1.036 ± 0.0013 |
| CAGGGGTCTA | 0.9957 ± 0.004 |
| GAGGAAGGAA | 1.04 ± 0.062 |
| GGTTTCCATT | 1 ± 0.054 |
| TAGGCTGGGG | 0.998 ± 0.023 |
| TATCATGAG | 1 ± 0.033 |

| Sequence | switch fluorescence ratio |
| --- | --- |
| AAGTTAATTC | 1.013 ± 0.0081 |
| TAAGGGGTGG | 0.969 ± 0.028 |
| GGGCGGCACG | 0.966 ± 0.054 |
| CCAACGGTCT | 1.04 ± 0.0012 |
| TTTTGCCATT | 0.999 ± 0.035 |
| CTAAAGTGTG | 0.9858 ± 0.0098 |
| GTGGCAGGAA | 0.964 ± 0.068 |
| TGTGAAGTGG | 1.02 ± 0.034 |
| CCACGCCCGG | 1.15 ± 0.099 |
| ACTAGGGGTT | 1.23 ± 0.34 |
| GGAGGAAGTC | 0.975 ± 0.0024 |
| TTCTGTTGAT | 0.9875 ± 0.0092 |
| CAGGAGGGGT | 1.03 ± 0.025 |
| CATTAGGGTC | 0.932 ± 0.019 |
| GGTTGTGGCA | 1.03 ± 0.011 |
| CAGACGGGTC | 1 ± 0.041 |
| GCGGGTAAGC | 1.05 ± 0.012 |
| CCGATGGGCC | 1.22 ± 0.028 |
| GGGCACGCTG | 1.033 ± 0.0053 |
| TTACTGGCT | 1 ± 0.059 |
| CGGTGCGGTG | 0.981 ± 0.013 |
| AGGTTGGATC | 0.995 ± 0.088 |
| CCCGTATACT | 3.22 ± 1.6 |

| Sequence | switch fluorescence ratio |
| --- | --- |
| TATTTTCTGT | 0.997 ± 0.036 |
| GGCTAGAATC | 0.986 ± 0.024 |
| CTCTAACAGC | 1.08 ± 0.022 |
| CTCGTTCTTT | 1 ± 0.031 |
| TATGTTTTTC | 0.9687 ± 0.0014 |
| GGGTGTACTG | 1 ± 0.0089 |
| GCGGGTGGTA | 1.01 ± 0.041 |
| GCCGGGATAG | 1.23 ± 0.35 |
| TTTAGATTCT | 0.992 ± 0.032 |
| AATTGAAAAA | 1.05 ± 0.069 |
| TAACGCATCG | 0.9887 ± 0.0012 |
| AGGTCGCCTG | 1.031 ± 0.0069 |
| TGGTGGGGAT | 0.985 ± 0.029 |
| TTAAGGGGTA | 1 ± 0.019 |
| TCATACGGGG | 1.01 ± 0.023 |
| ACTGTTTCTC | 0.996 ± 0.022 |
| TCAAAGACGG | 1.02 ± 0.016 |
| ATATGTTTGG | 1.01 ± 0.018 |
| ATGTAACTTA | 1.03 ± 0.027 |
| GAGAGTCATC | 1.035 ± 0.0087 |
| CCAAACTTAG | 1.02 ± 0.027 |
| CCGAGCGGGA | 1.77 ± 0.37 |
| GAGGCTATCT | 1.07 ± 0.0035 |

| Sequence | switch fluorescence ratio |
| --- | --- |
| TTGAAATCTT | 1.78 ± 1 |
| TTCATTAATC | 0.97104 ± 0.00025 |
| AGGGATCTGC | 0.966 ± 0.028 |
| AGTTTGTCAT | 0.967 ± 0.032 |
| TGGGGGAAA | 0.988 ± 0.04 |
| CTCGTGTTCG | 0.984 ± 0.013 |
| TTACGGAGGC | 1.0641 ± 5.8e-05 |
| TTGTCAGTTT | 1.03 ± 0.079 |
| TTTTTTCTGA | 1.01 ± 0.028 |
| TGTGGTTTTA | 1 ± 0.033 |
| TATTACTTGC | 1.03 ± 0.042 |
| TTTCGGCGGG | 1 ± 0.013 |
| AGGTTTTTAT | 1.06 ± 0.16 |
| TAGTGGGGTG | 0.969 ± 0.01 |
| TCTGTGTTT | 0.9348 ± 0.0089 |
| AACTAGGAGG | 0.983 ± 0.012 |
| GTGTTTAAAA | 0.995 ± 0.013 |
| GCATGGGGTT | 0.998 ± 0.031 |
| CGTCTGGTGG | 0.991 ± 0.05 |

Reference: the supplement of paper PMC10126150
